US20100129315A1

Molecular target: human MN protein, entire extra-cellular domain with a C-terminal histag, expressed in HKB-11 cells (human), Q16790
Experiment: SPR (BIAcore 3000), IgG captured on anti-human IgG Fc, soluble MN as analyte, 1:1 Langmuir fit
Conditions: remark: other sources report otherwise

B1: 3a4 full-length human IgG1 antibody (antibody)
chain 1: QVELVESGGGLVQPGGSLRLSCAASGFTFSDYSINWVRQAPGKGLEYVSNISYSGSSTYYADSVKGRFTISRDNSKNTLYLQMNSLRAEDTAVYYCARFKYSGGSDSWGQGTLVTVSS
chain 2: DIELTQPPSVSVAPGQTARISCSGDNLPDFYVHWYQQKPGQAPVLVISEDNKRPSGIPERFSGSNSGNTATLTISGTQAEDEADYYCSTYGYTYSYSVFGGGTKLTVL
Kd: 1 nM
